1 substance from publication doi:10.1101/191742 can be followed below.

Holding throughout (assay): single-molecule diffusometry in an ABEL trap
Assay [1] deals with Nicotiana tabacum Rubisco activase S379C (Nt-Rca-S379C) (Nicotiana tabacum).
Assay [2] shares this target. The source holds these as a separate data set.
For assay [3] the target is unchanged. This is another data set of the same source.
Assay [4] has the same target. The source holds these as a separate data set.
Assay [5] has the same target. This is another data set of the same source.

Values joined by “and” are separate entries in the source; they are usually repeats but may differ in a detail not shown here. Equal entries are not always repeated. Where two headings read alike, the source gives them in different places. A value given as a limit tells only on which side of the number the result lay.

With “Nicotiana tabacum Rubisco activase S379C (Nt-Rca-S379C) (enzyme)”, the values for the rate of subunit exchange in assay [1] and in assay [2] were greater than 0.2 s⁻¹ and 0.1 s⁻¹, respectively. The substance further gave an equilibrium constant for hexamer formation from dimers (Kd 2-4 x Kd 4-6) in assay [2] of 0.2 μM^2. The stoichiometry N (usually a count of units in the complex or per binding partner) is 2 in assay [2]; 2 in assay [3]; 4 and 6 in assay [4]; 4 and 6 and > 6 in assay [5].
